# Experimental data: US7297508 (Takeda / Millennium, dated 2007)
# B1: FAPα (SEQ ID NO:3), secreted recombinant human fibroblast activation protein alpha, residues 27-760 of SEQ ID NO:1 with part of the gp67 signal sequence at the … (enzyme)
# chain: ADPGRPSRVHNSEENTMRALTLKDILNGTFSYKTFFPNWISGQEYLHQSADNNIVLYNIETGQSYTILSNRTMKSVNASNYGLSPDRQFVYLESDYSKLWRYSYTATYYIYDLSNGEFVRGNELPRPIQYLCWSPVGSKLAYVYQNNIYLKQRPGDPPFQITFNGRENKIFNGIPDWVYEEEMLATKYALWWSPNGKFLAYAEFNDTDIPVIAYSYYGDEQYPRTINIPYPKAGAKNPVVRIFIIDTTYPAYVGPQEVPVPAMIASSDYYFSWLTWVTDERVCLQWLKRVQNVSVLSICDFREDWQTWDCPKTQEHIEESRTGWAGGFFVSTPVFSYDAISYYKIFSDKDGYKHIHYIKDTVENAIQITSGKWEAINIFRVTQDSLFYSSNEFEEYPGRRNIYRISIGSYPPSKKCVTCHLRKERCQYYTASFSDYAKYYALVCYGPGIPISTLHDGRTDQEIKILEENKELENALKNIQLPKEEIKKLEVDEITLWYKMILPPQFDRSKKYPLLIQVYGGPCSQSVRSVFAVNWISYLASKEGMVIALVDGRGTAFQGDKLLYAVYRKLGVYEVEDQITAVRKFIEMGFIDEKRIAIWGWSYGGYVSSLALASGTGLFKCGIAVAPVSSWEYYASVYTERFMGLPTKDDNLEHYKNSTVMARAEYFRNVDYLLIHGTADDNVHFQNSAQIAKALVNAQVDFQAMWYSDQNHGLSGLSTNHLYTHMTHFLKQCFSLSDHHHHHH
# modifications: three Asn residues (chain A) or five Asn residues (chain B) carry covalently linked sugar molecules; positions not given
# notes: Only residues 39-757 are seen in the structure; Expressed in Hi5 insect cells; also called Seprase; apo FAPα
# Molecular target: the molecule itself
# Experiment: X-ray crystal structure of apo FAPα (SEQ ID NO:3), homodimer
protein,measurement,value
B1,binding result,binds
